± gives the standard deviation.
Assay: protein stability index of a GFP-peptide fusion (GPS, HEK-293T) (PSI 1-6); higher = more stable
[1] = treatment: DMSO, c terminus: a fixed tail appended
[2] = treatment: MLN4924 1 uM, 8 h, c terminus: a fixed tail appended
[3] = treatment: DMSO, c terminus: native
[4] = treatment: MLN4924 1 uM, 8 h, c terminus: native
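Also: 24-mer peptide tiles fused after GFP, lentivirally expressed, FACS-sorted into six equal bins by GFP/DsRed ratio, decoded by Illumina sequencing, PSI is the read-weighted mean bin number.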

Row | Sequence | protein stability index [1] | protein stability index [2] | protein stability index [3] | protein stability index [4]
1 | AVGSGERRGGGPVFPAPVVGSGGA [ZBTB22] | 4.39 ± 0.19 | 4.45 ± 0.38 | – | –
2 | PVAMRVAKLAINQGMEVDLVTGLA [AUH] | 2.65 ± 0.29 | 2.92 ± 0.5 | – | –
3 | EPEKIYAMPDPTVPDSDIKALTTL [ESRRG] | 4.46 ± 0.15 | 4.6 ± 0.2 | – | –
4 | TLELCHDELFADLFNSNHKAGGAG [CEBPD] | – | 4.24 ± 1 | – | –
5 | QRKLKPPIVPKIAGDGDTSNFETY [PRKX] | 4.38 ± 0.16 | 4.47 ± 0.12 | – | –
6 | DPHTKKALEAHCRADELASQDGR [PPP2R5C] | – | – | 5.16 ± 0.29 | 5.3 ± 0.12
7 | YRAITSAYYRGAVGALLVYDIAKH [RAB11A] | 2.43 ± 0.51 | 2.16 ± 0.33 | – | –
8 | ALQNYNNELVKCIEELCQKREELC [SSNA1] | 2.94 ± 0.18 | 2.94 ± 0.33 | – | –
9 | HMNVEALPEWISCLIQKAQWTVGK [RNF180] | 2.32 ± 0.51 | 2.19 ± 0.34 | – | –
10 | VKGRVRCLTAGPEVAAQLPAVRQL [ZSWIM9] | 3.19 ± 0.18 | 3.12 ± 0.43 | – | –
11 | KIRLRCQKGIPPSLRGRAWQYLSG [TBC1D10A] | 2.21 ± 0.094 | 2.09 ± 0.23 | – | –
12 | PDFNPEKHGSLNRYHNSHPLRERA [YJU2B] | 4.36 ± 0.21 | 4.37 ± 0.29 | – | –
13 | RTRPRKPIRCGEVLFAVGGWCSGD [KLHL20] | 2.39 ± 0.28 | 2.17 ± 0.33 | – | –
14 | EEKMETKTESSGIETEPTVHHLPL [EPB41L3] | 5.56 ± 0.37 | 5.49 ± 0.27 | – | –
15 | YRSPEPDPYLSYRWKRRRSYSREH [CLK3] | 3.55 ± 0.33 | 3.71 ± 0.12 | – | –
16 | HSNGPTDLSMKGGASTTSTTPSAL [NOL4L] | 4.94 ± 0.19 | 4.94 ± 0.3 | – | –
17 | MDDERYFNEMSAQGLRPRTVSSPI [CCDC6] | 4.28 ± 0.29 | 4.16 ± 0.14 | – | –
18 | GCQLDLRYADLEAVNRARRPLARP [RHOBTB1] | 3.07 ± 0.12 | 3.16 ± 0.28 | – | –
19 | ALHCPTGTEYTCKVYPVQEALAVL [TRIB3] | 2.27 ± 0.39 | 2.28 ± 0.32 | – | –
20 | LWCANILGYAVSTFAMVKGYFFPT [DHCR7] | 4.05 ± 0.23 | 3.83 ± 0.12 | – | –
21 | FDVDHGICIMDAENITTVSVIKDH [WDR88] | 3.27 ± 0.2 | 3.25 ± 0.25 | – | –
22 | EVSADDETPNPPQSAQIACSSPSV [MAGEA10] | 5.57 ± 0.28 | 5.42 ± 0.21 | – | –
23 | AIMLLPDENREVLQTLLYFLSDVT [DLC1] | 2.12 ± 0.23 | 2.19 ± 0.13 | – | –

Row | Sequence | protein stability index [1] | protein stability index [2] | protein stability index [3] | protein stability index [4]
24 | GYNLRALAEGVSASLHTLLGDPCP [HDAC6] | 2.6 ± 0.31 | 2.64 ± 0.2 | – | –
25 | LFVGLYYNVIIGWSIFYFFKSFQY [SLC6A17] | – | 3.17 ± 1.5 | – | –
26 | RRSPRPDHPGTPPHKTFRKLRLFD [WEE1] | 3.4 ± 0.078 | 3.71 ± 0.34 | – | –
27 | CLTCGKSFRQGMHLTRHQRTHTGE [ZNF263] | 4.03 ± 0.23 | 3.98 ± 0.46 | – | –
28 | GLIPTGSGRHPSHSTTPSGPGDEV [ARFIP2] | 5.08 ± 0.17 | 5.04 ± 0.1 | – | –
29 | GRRGWKKFYAVLKGTILYLQKDEY [PSD2] | 3 ± 0.4 | 3.32 ± 0.37 | – | –
30 | TVERPFYDLWASDNPLDRPLVGQD [NOP53] | 4.09 ± 0.37 | 4.2 ± 0.15 | – | –
31 | MVWNQNGKSPSITFEYTLLQPPHE [ADAMTSL2] | 2.23 ± 0.27 | 2.64 ± 0.37 | – | –
32 | SPEKFQIEANFPRRVLPCIPSEEW [FAF2] | 3.75 ± 0.12 | 3.79 ± 0.29 | – | –
33 | FAALRASLVAPLLLELAGEVTDTG [MYORG] | 2.13 ± 0.39 | 2.36 ± 0.4 | – | –
34 | FDEKIVPILKRKLPGSDVSGRLMG [FBXO28] | 2.75 ± 0.48 | 3.48 ± 0.47 | – | –
35 | LAGGYTSSLACHRALQDAFSGLFW [MNAT1] | 2.44 ± 0.12 | 2.45 ± 1 | – | –
36 | CSKVSELTERLKVLEAKMTMLTVI [EMID1] | 2.63 ± 0.73 | 2.46 ± 0.38 | – | –
37 | KSSIIPFRALKRPLQFLGLFENSL [ZER1] | 1.9 ± 0.5 | 2.31 ± 0.45 | – | –
38 | RVPSFESFEDDCSQSLCLNKPTMS [ETS2] | 4.6 ± 0.16 | 4.55 ± 0.16 | – | –
39 | ICMAQIAYSGNTSNLSYHLEKNHP [ZBED1] | 2.3 ± 0.24 | 2.38 ± 0.26 | – | –
40 | SKIGFGILLSKEPDGVWAYNRGEH [SMAD6] | 2.43 ± 0.25 | 2.71 ± 0.15 | – | –
41 | FPSLQVTAILIECGADVNVRDSDD [FEM1C] | 2.44 ± 0.18 | 2.37 ± 0.39 | – | –
42 | WFQRQYLSTPDSQSLRCDLIRYIC [INTS3] | 2.25 ± 0.35 | 2.28 ± 0.44 | – | –
43 | EERVALNTEIEKLGRSIVSSPQGK [PKD2L1] | 5.06 ± 0.16 | 5.15 ± 0.32 | – | –
44 | PSPEPAGRRAALYVHWPYCEKRCS [RSAD1] | 2.78 ± 0.26 | 3.02 ± 0.41 | – | –
45 | VDENDSHEGEDQFLSLEASTETLV [DLC1] | 5.66 ± 0.16 | 5.56 ± 0.2 | – | –
46 | WALLCLGLLLPGGGAAWSIGAAPF [EMID1] | 3.54 ± 0.26 | 3.22 ± 0.19 | – | –

Row | Sequence | protein stability index [1] | protein stability index [2] | protein stability index [3] | protein stability index [4]
47 | YDYPEEEQLSGAGYRVSAALEEAD [EID1] | 5.38 ± 0.31 | 5.22 ± 0.32 | – | –
48 | QEAPLQDDSCLNNDIPHSIPLEQG [FAN1] | 5.25 ± 0.34 | 5.27 ± 0.17 | – | –
49 | VRENVPRVLNSAKEKSSTVPIPTV [SOAT1] | 4.161 ± 0.036 | 4.16 ± 0.14 | – | –
50 | NAININELFIEISRRIPSTDANLP [RAB22A] | 2.35 ± 0.18 | 2.18 ± 0.45 | – | –
51 | FVFSTEERTQLRLESLEDTHIMKG [TRIB1] | 2.85 ± 0.63 | 3.36 ± 0.41 | – | –
52 | LEKEQVAHIRAERDILVEADGAWV [STK38L] | 3.8 ± 0.31 | 3.916 ± 0.026 | – | –
53 | ALCQGLYFHINQTLREAHFHSLQH [FAM104A] | 2.81 ± 0.54 | 2.8 ± 0.51 | – | –
54 | AKDMKKAVAHMKYMGKGSMTGLAL [MATN2] | – | 2.37 ± 0.3 | – | –
55 | KGGVQNFNKDLVQDCGFEHLVPVI [CEP70] | 2.53 ± 0.13 | 3.18 ± 0.46 | – | –
56 | NGINLFDTAEVYAAGKAEVVLGNI [KCNAB2] | 2.89 ± 0.3 | 3 ± 0.3 | – | –
57 | GAAEEARRLEQRWGFGLEELYGLA [ACBD3] | 2.77 ± 0.37 | 2.99 ± 0.12 | – | –
58 | FDLNNLDPELKNLFDMCGISEAQL [WASL] | 2.62 ± 0.55 | 2.83 ± 0.69 | – | –
59 | SLIGHLQTLSPDMQGAYCTFPASV [DUSP5] | 2.07 ± 0.35 | 2.2 ± 0.38 | – | –
60 | EKLAPSEITEELPSSQLMPVKKQL [ZNF396] | 5.17 ± 0.15 | 5.14 ± 0.21 | – | –
61 | ATGKHYGASSCDGCKGFFRRSVRK [HNF4A] | 3.35 ± 0.19 | 3.73 ± 0.21 | – | –
62 | GLTDVSQIITVTVQTGLDQYQQVP [IQUB] | 2.26 ± 0.085 | 2.47 ± 0.23 | – | –
63 | KLLMADQDSPLDLTVRKSQSEPSE [LCOR] | 4.82 ± 0.28 | 4.921 ± 0.036 | – | –
64 | ASDGSDFTFLRPLSVQQPTALALE [PCDHGC5] | 3.82 ± 0.17 | 3.82 ± 0.32 | – | –
65 | NHILECEFYLLELMDCCLIVYHPY [CCNC] | 3.12 ± 1 | 2.78 ± 0.95 | – | –
66 | DSSFPPALAEGYRYPELDTPKLDC [TBX6] | 4.7 ± 0.25 | 4.72 ± 0.17 | – | –
67 | THVLSKEVQHLREEKSKQFLDLME [LRRC45] | 3.66 ± 0.26 | 3.81 ± 0.26 | – | –
68 | PLLPPAMGTEPAPSAPEALHSLPG [TBX6] | 5.07 ± 0.074 | 5.06 ± 0.16 | – | –
69 | NFKPRGYSECIVTVGGEERVSRKP [GAN] | 4.14 ± 0.28 | 4.32 ± 0.39 | – | –

Row | Sequence | protein stability index [1] | protein stability index [2] | protein stability index [3] | protein stability index [4]
70 | EATHEPAAARIRAQVPDTRWSRVG | 4.62 ± 0.31 | 4.05 ± 0.41 | – | –
71 | EREPVRGQCLDSTDQLEFTVEPRL [RTN2] | 4.78 ± 0.2 | 4.71 ± 0.2 | – | –
72 | LYPDLSCPEGLEELLSAPPPDLGA [SPSB2] | 4.27 ± 0.14 | 4.46 ± 0.12 | – | –
73 | IRERILGPSHPDTSYYIRYRGAVY [FEM1C] | 2.22 ± 0.27 | 2.1 ± 0.34 | – | –
74 | EVDWEYFYGLLFTSENLKLVHIVC [DFFB] | 3.34 ± 0.39 | 2.56 ± 0.94 | – | –
75 | HRRDGKWQNVHFHCSGAPVAPLQ [CAMK2B] | – | – | 2.39 ± 0.31 | 2.6 ± 0.34
76 | AREYYSEADASHCIQQILEAVLHC [CAMK2A] | 2.48 ± 0.26 | 2.55 ± 0.24 | – | –
77 | GVPPLKLCKNLNREAQQYSEALAS [GLIPR2] | 3.89 ± 0.44 | 3.96 ± 0.14 | – | –
78 | DLTASHDAALLEMENNHTVAITIL [MTUS2] | 2.86 ± 0.21 | 2.85 ± 0.25 | – | –
79 | SSHHSHSYIGLPYADHNYGARPPP [KMT2E] | 3.46 ± 0.16 | 3.7 ± 0.27 | – | –
80 | KNLQQTTNTTSTQMTNIGVYVSNM [IQUB] | 3.25 ± 0.29 | 3.17 ± 0.22 | – | –
81 | GVCGDRATGFHFNAMTCEGCKGFF [VDR] | 2.28 ± 0.13 | 2.38 ± 0.19 | – | –
82 | DQDPSVLYFSIHRYEQGRFWPHLK [HDAC6] | 2.25 ± 0.41 | 2.16 ± 0.28 | – | –
83 | LCKNLNREAQQYSEALASTRILKH [GLIPR2] | 3.57 ± 0.32 | 3.74 ± 0.33 | – | –
84 | FRKIKDHFCPFENQFHTEIQILA [C8orf76] | – | – | 2.69 ± 1 | 3.26 ± 0.27
85 | VYKDGEHGEEQRITIEPGTSYRLQ [PTPRD] | 4.81 ± 0.15 | 5.03 ± 0.16 | – | –
86 | EAVRQEMRRQEPLPPPPPPSRGGN [WAS] | 5.18 ± 0.21 | 5.19 ± 0.11 | – | –
87 | IFNYMRLGSTKLSDKDKAVGIFNT [OR3A1] | 2.1 ± 0.34 | 2.36 ± 0.25 | – | –
88 | LEEKDRVLKKQDAFYKEQLARLEE [CHCHD3] | 5.04 ± 0.25 | 5.17 ± 0.24 | – | –
89 | EGLAFLVSCPEGRADCASESACSS [PWWP2B] | 3.6 ± 0.41 | 3.71 ± 0.24 | – | –
90 | SELQREMEALAAETNLLLAQKQRL [TEKT4] | 4 ± 0.53 | 4.2 ± 0.13 | – | –

Reference: the supplement of paper PMC10567573
